Here are results for 2 molecules from US20120195831A1 (published 2012).

For experiment [1], the target named is T1, Her2 on CHO cells (CHO-Her2) (UniProt P04626 23-1255, limits assumed).
T1 construct: whole, on cells
As to the kind of experiment: FACS on CHO-Her2 cells, purified IgG, R-PE anti-mouse IgG. How it is done: (§1) CHO-Her2, CHO-Her4, CHO-EGFR cells were harvested and resuspended in PBS, 2% FBS at a concentration of approximately 1×10⁶/ml. Cells were stained with purified IgGs at 4° C. for 40 min. Cells were washed with 4 mL PBS, 2% FBS, then centrifuged at 1200 rpm for 10 minutes. Supernatant was removed. Cells were stained with R-PE conjugated anti-mouse IgG at 4° C. for 30 min. Cells were washed with 4 mL PBS, 2% FBS, then centrifuged at 1200 rpm for 10 minutes. Supernatant was removed and cell pellets were fixed in 1% formaldehyde. Cells were analyzed on a FACS Calibur (BD Biosciences) by collecting 20,000 events from gate 1.

The target in experiment [2] is T2, human Her3 receptor on cells (T47D, MCF7) (human, UniProt P21860 20-1342). The experiment in a line: cell-based or functional assay.
T2 sequence (P21860 20-1342 limits assumed, stated change not applied): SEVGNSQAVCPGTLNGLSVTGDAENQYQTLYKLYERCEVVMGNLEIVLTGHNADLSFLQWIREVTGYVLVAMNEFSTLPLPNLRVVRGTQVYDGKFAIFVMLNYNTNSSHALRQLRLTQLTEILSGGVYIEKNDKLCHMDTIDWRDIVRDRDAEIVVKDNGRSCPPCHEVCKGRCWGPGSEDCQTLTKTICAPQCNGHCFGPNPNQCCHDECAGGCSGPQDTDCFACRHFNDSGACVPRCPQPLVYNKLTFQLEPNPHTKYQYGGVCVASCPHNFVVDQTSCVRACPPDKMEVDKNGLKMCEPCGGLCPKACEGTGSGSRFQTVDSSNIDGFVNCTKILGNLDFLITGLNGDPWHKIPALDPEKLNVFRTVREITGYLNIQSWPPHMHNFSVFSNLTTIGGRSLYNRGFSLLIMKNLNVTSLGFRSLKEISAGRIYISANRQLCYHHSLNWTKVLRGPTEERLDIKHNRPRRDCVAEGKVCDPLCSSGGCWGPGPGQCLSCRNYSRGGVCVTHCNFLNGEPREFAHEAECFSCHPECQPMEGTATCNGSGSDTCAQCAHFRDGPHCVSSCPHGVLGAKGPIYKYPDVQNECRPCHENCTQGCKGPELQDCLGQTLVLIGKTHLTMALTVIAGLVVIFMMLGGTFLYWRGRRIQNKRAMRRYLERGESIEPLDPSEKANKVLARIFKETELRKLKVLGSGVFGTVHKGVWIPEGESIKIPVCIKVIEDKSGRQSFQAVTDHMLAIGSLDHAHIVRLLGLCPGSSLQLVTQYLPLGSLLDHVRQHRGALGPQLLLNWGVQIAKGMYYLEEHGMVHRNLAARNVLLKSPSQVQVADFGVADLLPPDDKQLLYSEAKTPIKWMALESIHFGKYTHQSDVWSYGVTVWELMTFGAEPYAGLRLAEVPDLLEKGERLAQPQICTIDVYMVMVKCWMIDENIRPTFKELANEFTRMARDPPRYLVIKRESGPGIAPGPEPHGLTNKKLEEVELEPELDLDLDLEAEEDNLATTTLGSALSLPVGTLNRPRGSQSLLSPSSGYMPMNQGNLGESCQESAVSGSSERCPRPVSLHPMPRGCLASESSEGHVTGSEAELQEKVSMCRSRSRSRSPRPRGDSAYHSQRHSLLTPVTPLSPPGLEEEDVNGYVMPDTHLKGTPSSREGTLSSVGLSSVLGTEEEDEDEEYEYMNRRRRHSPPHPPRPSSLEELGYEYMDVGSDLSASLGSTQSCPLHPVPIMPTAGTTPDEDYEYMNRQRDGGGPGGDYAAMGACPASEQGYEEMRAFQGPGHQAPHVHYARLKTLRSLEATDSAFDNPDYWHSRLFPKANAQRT
Experiment [3] concerns the target T2, human Her3 receptor on cells (T47D, …). The experiment in a line: cell-based or functional assay. This is another data set of the same source.
Experiment [4] deals with T3, Her3/Avi/His10 receptor (Homo sapiens (Human), UniProt P21860 20-643, limits assumed).
T3 construct: Soluble tagged receptor of the AlphaScreen assay; The antibodies are called anti-hHer3 there; not shown: Avi tag; His10 tag (ten histidines by its name)
T3 sequence (P21860 20-643 limits assumed): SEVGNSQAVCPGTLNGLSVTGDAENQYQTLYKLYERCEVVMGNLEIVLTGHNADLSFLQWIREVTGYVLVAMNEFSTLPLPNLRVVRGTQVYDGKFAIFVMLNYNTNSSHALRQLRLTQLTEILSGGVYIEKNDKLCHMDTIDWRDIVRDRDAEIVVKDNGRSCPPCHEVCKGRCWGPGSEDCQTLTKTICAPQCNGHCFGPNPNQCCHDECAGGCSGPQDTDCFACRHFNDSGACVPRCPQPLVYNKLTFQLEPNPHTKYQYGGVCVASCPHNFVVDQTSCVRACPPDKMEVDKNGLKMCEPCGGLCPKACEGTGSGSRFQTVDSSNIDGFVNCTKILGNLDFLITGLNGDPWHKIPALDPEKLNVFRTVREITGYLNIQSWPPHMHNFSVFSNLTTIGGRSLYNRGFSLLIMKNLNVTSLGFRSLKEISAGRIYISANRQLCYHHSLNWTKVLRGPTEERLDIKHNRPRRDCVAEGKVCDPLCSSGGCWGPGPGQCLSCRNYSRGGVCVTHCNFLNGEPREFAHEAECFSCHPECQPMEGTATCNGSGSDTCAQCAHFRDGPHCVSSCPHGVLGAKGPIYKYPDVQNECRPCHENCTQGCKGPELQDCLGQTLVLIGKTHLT
As to the kind of experiment: AlphaScreen competition; antibody titrated against 10 nM biotinylated NRG-1 beta and 10 nM Her3/Avi/His10; n = 3. On the procedure: (§2) SDI or Genovac purified anti-hHer3 Mabs were serially diluted two-fold into an assay buffer made from 25 mM Hepes, 100 mM NaCl, 0.5% BSA and 0.05% Tween20 in an opaque/white, half-well area plate (Costar). Mouse IgG1 antibody was used as a negative control (Southern Biotech; cat #010201). Biotinylated NRG-1 beta ligand and Her3/Avi/His₁₀ receptor were added sequentially at 10 nM concentration to the assay plate containing serially diluted antibodies. This mixture of receptor, ligand and the antibodies was incubated at room temperature with gentle shaking for 90 minutes. AlphaScreen Streptavidin Donor beads and His-Nickel chelate Acceptor beads were added into the assay at a final concentration of 20 μg/ml each. The light sensitive beads were handled under chromagreen filtered light. The assay plates were covered with foil and incubated at room temperature with gentle shaking for 1 hour. The plates were read in PE EnVision plate reader equipped with an Alpha module (dedicated laser for excitation and designed to measure the signal above the well). Table 7 listed IC₅₀ values in ligand blocking that were estimated using four parameter curve fitting with concentration titration graphs (FIGS. 7 A&B).
(In general: Alpha assays give light when donor and acceptor beads are brought close together.)

Experiment [5] has as its target T4, Her4 on CHO cells (CHO-Her4) (UniProt Q15303 26-1308, limits assumed).
T4 construct: whole, on cells
As to the kind of experiment: FACS on CHO-Her4 cells, purified IgG, R-PE anti-mouse IgG. How it is done:
as §1

Experiment [6] concerns the target T2, human Her3 receptor on cells (T47D, …). The experiment in a line: cell-based or functional assay. This is another data set of the same source.
In another experiment the target is T5, mouse HER3/ErbB3 (mouse, UniProt Q61526).
T5 construct: receptor expressed on CHO cells; also called mouse Her3 receptor on CHO cells
T5 sequence (Q61526 20-1339 limits assumed): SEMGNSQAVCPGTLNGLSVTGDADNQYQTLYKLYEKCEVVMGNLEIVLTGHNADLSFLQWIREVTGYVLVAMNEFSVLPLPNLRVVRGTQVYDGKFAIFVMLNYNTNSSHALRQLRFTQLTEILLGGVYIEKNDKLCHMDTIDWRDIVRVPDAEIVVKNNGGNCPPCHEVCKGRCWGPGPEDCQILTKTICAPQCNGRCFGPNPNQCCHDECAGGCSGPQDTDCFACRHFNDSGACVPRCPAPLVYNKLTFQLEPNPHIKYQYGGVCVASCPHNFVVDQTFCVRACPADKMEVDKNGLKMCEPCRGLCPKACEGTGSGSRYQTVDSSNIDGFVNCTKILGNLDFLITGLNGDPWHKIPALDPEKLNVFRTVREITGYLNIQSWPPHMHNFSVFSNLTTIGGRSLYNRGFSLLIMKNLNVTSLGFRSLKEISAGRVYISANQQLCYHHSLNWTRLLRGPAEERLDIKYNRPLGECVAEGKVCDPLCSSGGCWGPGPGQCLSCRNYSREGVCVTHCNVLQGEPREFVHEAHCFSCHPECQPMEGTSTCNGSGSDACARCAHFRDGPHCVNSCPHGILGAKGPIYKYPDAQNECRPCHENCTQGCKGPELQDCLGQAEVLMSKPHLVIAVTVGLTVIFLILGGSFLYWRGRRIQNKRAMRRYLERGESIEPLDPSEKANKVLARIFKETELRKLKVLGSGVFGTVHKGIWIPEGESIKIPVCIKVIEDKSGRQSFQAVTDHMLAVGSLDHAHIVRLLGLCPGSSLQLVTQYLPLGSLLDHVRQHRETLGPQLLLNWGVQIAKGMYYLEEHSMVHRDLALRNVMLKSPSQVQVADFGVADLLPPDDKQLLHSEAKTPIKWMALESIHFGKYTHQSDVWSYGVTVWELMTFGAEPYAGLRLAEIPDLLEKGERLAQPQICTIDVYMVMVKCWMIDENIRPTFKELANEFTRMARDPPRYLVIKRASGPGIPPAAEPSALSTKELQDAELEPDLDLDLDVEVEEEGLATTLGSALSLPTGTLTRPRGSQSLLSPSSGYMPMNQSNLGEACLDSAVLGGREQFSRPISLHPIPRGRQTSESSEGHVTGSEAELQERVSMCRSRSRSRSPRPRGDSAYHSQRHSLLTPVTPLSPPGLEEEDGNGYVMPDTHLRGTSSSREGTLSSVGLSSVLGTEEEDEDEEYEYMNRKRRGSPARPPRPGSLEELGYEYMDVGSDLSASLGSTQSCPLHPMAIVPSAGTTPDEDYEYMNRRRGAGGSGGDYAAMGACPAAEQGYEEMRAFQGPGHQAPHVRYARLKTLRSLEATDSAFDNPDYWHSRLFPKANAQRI
The experiment in a line: FACS, purified IgG on CHO cells expressing mouse Her3, R-PE anti-mouse IgG. How it is done: as §1, with “CHO cell lines expressing human or mouse Her3 receptors were used to study species-cross reactivity. Cells” for “CHO-Her2, CHO-Her4, CHO-EGFR cells”
For orientation: A flow cytometer gives signals particle by particle.

The target in experiment [7] is T3, Her3/Avi/His10 receptor. The experiment in a line: AlphaScreen ligand blocking: antibody titrated against 10 nM biotinylated NRG-1 beta and 10 nM Her3/Avi/His10, % signal. How it is done: as §2
Experiment [8] deals with T6, Recombinant Human Her3 (Her3/ErbB3 extracellular domain) (human, UniProt P21860 20-643).
T6 construct: Analyte of the BIAcore assay; also called Her3 ECD; human Her3/ErbB3 extracellular domain
T6 sequence (P21860 20-643 limits assumed): as the sequence (P21860 20-643 limits assumed) above
The experiment in a line: SPR (BIAcore), Mab captured by anti-IgG Fc on CM5 chip, recombinant human Her3 as analyte, 25 °C. On the procedure:
All experiments were performed at 25° C. at a flow rate of 40 μl/min. To prepare a BIAcore assay, an anti-human IgG-Fc antibody (50 μg/ml each in acetate buffer, pH 5.0) was immobilized onto a carboxymethyl dextran sensorchip (CM5) using amine coupling procedures as described by the manufacturer. 10000 resonance units (RU) of anti-mouse IgG Fc antibodies were linked respectively onto Flowcells (FC) 1 and 2. Purified Mabs to be tested were diluted at a concentration of 5 μg/ml in 0.5% P20, HBS-EP buffer and injected on FC2 to reach 500 to 1000 RU. FC1 was used as the reference cell. Specific signals correspond to the difference of signals obtained on FC2 versus FC1. The analyte (Recombinant Human Her3, apparent molecular weight 97 kDa) was injected during 90 sec at 5 different concentrations (100, 50, 25, 12.5 and 6.25 nM) in 0.5% P20, HBS-EP buffer. These concentrations were prepared from stock solution in 0.5% P20, HBS-EP. The dissociation phase of the analyte was monitored over a 10 minutes period. Running buffer was also injected under the same conditions as a double reference. After each cycle (antibody+Her3 injection), both Flowcells were regenerated by injecting 20 to 45 μl of Glycine-HCl buffer pH 1.5. This regeneration is sufficient to eliminate all Mabs and Mabs/Her3 complexes captured on the sensorchip. Table 1 listed binding KD for Her3 binding monoclonal antibodies.
For orientation: SPR reads the build-up and loss of mass on a sensor chip optically.

For experiment [9], the target named is T7, EGFR on CHO cells (CHO-EGFR) (UniProt P00533 25-1210, limits assumed).
T7 construct: whole, on cells
The experiment in a line: FACS on CHO-EGFR cells, purified IgG, R-PE anti-mouse IgG. How it is done:
as §1

Experiment [10] concerns the target T2, human Her3 receptor on cells (T47D, …). The experiment in a line: cell-based or functional assay. The source holds these as a separate data set.

T4 sequence (Q15303 26-1308 limits assumed): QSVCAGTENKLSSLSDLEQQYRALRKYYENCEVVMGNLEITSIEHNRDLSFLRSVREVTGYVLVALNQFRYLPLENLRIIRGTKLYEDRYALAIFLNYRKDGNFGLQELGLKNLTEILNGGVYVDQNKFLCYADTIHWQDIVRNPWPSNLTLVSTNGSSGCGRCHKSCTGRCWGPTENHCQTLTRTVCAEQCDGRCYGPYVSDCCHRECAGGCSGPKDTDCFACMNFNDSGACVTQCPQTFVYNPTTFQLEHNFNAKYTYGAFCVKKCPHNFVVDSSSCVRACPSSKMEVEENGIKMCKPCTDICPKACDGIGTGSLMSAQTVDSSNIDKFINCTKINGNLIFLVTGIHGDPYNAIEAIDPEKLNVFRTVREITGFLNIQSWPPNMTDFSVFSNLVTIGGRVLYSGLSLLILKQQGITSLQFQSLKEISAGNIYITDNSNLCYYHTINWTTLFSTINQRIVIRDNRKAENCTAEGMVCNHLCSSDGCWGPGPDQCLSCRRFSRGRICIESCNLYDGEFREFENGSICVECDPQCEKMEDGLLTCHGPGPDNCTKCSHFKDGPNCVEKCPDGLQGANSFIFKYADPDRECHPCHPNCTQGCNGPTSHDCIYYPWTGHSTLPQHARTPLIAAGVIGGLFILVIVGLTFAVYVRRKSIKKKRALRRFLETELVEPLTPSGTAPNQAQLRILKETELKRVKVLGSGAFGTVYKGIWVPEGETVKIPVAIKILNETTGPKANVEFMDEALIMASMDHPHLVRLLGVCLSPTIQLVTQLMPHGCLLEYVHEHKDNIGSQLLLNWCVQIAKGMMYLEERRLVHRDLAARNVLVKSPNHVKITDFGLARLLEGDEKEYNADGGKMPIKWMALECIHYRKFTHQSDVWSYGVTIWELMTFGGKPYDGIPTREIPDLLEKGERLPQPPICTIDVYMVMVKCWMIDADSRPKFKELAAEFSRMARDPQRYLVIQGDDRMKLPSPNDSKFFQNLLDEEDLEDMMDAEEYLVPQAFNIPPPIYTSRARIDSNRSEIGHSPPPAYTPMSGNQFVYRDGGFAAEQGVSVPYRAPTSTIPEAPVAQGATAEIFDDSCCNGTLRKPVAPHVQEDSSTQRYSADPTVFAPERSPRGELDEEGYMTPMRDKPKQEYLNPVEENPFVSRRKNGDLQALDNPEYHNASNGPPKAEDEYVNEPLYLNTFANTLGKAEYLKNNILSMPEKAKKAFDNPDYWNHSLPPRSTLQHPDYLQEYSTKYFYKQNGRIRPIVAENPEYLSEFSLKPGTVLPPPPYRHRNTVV

B1: PO-1G2-B6 (antibody, V domains shown)
VH: EVQLQQSGPELVKPGASVKISCKASGYSFTGYHIHWMKQSHVESLEWIGRINPYSGVTDYNQNFKDKANLTVDQSSSTAYMELHSLTSEDSAFYYCARTDYYGPWFAYWGQGTLVTVSA
VL: DIQMTQSPLSLPVSLGDQASISCRSSPSLVHSNGNTYLHWYLQKPGQSPKLLIYTVSNRFSGVPDRFSGSGSGTDFTLKINRVEAEDLGVYFCSQTTHVPWTFGGGTKLEIKR
notes: Purified mouse IgG from a hybridoma; also called PO-1G2-B6-HC; PO-1G2-B6-LC
Broadly, the IC50 is the midpoint of a concentration-inhibition curve. A low value points to greater potency. The term Kd denotes the equilibrium constant for the complex coming apart. As for B1, the binding result in experiment [1] is “no binding”; in experiment [5], “no binding”; with mouse HER3/ErbB3, “binds”; in experiment [9], “no binding”. Besides, the “IC50 of inhibition of pHer3 (MCF7 cells stimulated with rhNRG1-β1, ELISA)” value in [2] was 2.91 nM. For the same molecule, the “IC50 of pERK inhibition (MCF7 cells stimulated with rhNRG1-β1, MSD)” value in experiment [3] was 290 nM. The 50% inhibitory concentration (IC50) with Her3/Avi/His10 receptor [4] came to 72.8 nM; in the experiment with Her3/Avi/His10 receptor [7], 42.6 nM. Moreover, the “% Receptor Internalization (T47D cells, FACS)” value in experiment [6] was found to be 13%. In experiment [8], the dissociation constant (Kd) was determined as 5.5 nM.

B2: PO-3H7-E3 (antibody, V domains shown)
VH: EVQLQQSGAELVKPGASVKISCKASGYSFTGYYMNWVKQSHGKSLEWIGNINPYYGGSNYNQKFKARATLTVDKSSSTAYMQLNSLTSEDSAVYYCARKGDLYYSMDYWGQGTSVTVSS
VL: DIVMTQTPLSLPVSLGDQASISCRSSQSIVHSNGNTYLEWYLQKPGQSPKLLIYKVSNRFSGVPDRFSGSGSGTDFTLKISRVEAEDLGIYYCFQGSHVPPTFGGGTKLELKR
notes: Purified mouse IgG from a hybridoma; also called PO-3H7-E3-HC; PO-3H7-E3-LC
As for B2, the binding result in experiment [1] was “no binding”; in [5] it was “no binding”; in the experiment with mouse HER3/ErbB3, “binds”; in experiment [9], “no binding”. For the same molecule, the “IC50 of inhibition of pHer3 (MCF7 cells stimulated with rhNRG1-β1, ELISA)” value in experiment [2] was found to be 4.98 nM. Further, the IC50 in the experiment with Her3/Avi/His10 receptor [4] came to 12.7 nM; in the experiment with Her3/Avi/His10 receptor [7], 11 nM. For the same molecule, the “IC50 of pAKT inhibition (MCF7 cells stimulated with rhNRG1-β1, ELISA)” value in experiment [10] is 45.2 nM. Also, in experiment [6], the “% Receptor Internalization (T47D cells, FACS)” value turned out to be 14%. The Kd in [8] amounted to 1.6 nM.
